Conditions in all cases: remark: other sources report otherwise
Assay [1] addresses T1, A Proliferation Inducing Ligand (APRIL) (human), O75888.
T1 chain: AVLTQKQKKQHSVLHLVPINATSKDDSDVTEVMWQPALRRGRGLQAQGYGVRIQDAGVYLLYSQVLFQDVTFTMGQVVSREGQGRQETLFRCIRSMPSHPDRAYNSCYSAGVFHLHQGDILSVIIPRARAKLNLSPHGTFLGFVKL
Nature of the assay: binding assay of FIG. 1 (flow cytometry titration, one-site specific binding fit; format not stated); Example 4 results, unit printed µM. A general note: A flow cytometer gives signals particle by particle.

The target of assay [2] is T1, A Proliferation Inducing Ligand (APRIL) …. Nature of the assay: binding assay of FIG. 1 (flow cytometry titration, one-site specific binding fit; format not stated); FIG. 1 legend, unit printed pM.
Assay [3] has the same target. The experiment in a line: cell binding titration by flow cytometry; soluble APRIL varied to 10 nM on cells displaying the BCMA clone; BP is not defined in the filing.
Assay [4] shares this target. Nature of the assay: flow cytometry titration of soluble APRIL (about 0.0005 to 10 nM) on yeast displaying BCMA; one site specific binding fit, nM is the unit of the concentration axis.
Assay [5] concerns the target BAFF. The experiment in a line: cell binding titration by flow cytometry; soluble BAFF varied to 10 nM on cells displaying the BCMA clone; Kd and BP printed as N.D.
In assay [6] the target is T1, A Proliferation Inducing Ligand (APRIL) …. Nature of the assay: flow cytometry titration of soluble APRIL on yeast displaying BCMA; one site specific binding fit; A.U. from the axis 'Cell binding (A.U.)'.
Assay [7] has the same target. Nature of the assay: cell binding titration by flow cytometry; soluble APRIL varied to 10 nM on cells displaying the BCMA clone.

Here are results for one molecule from patent publication US20240294604A1.

One may read the Kd as the concentration at which binding is half-saturated. Lower therefore signals tighter binding.

BAFF, sequence (chain, as listed by the source): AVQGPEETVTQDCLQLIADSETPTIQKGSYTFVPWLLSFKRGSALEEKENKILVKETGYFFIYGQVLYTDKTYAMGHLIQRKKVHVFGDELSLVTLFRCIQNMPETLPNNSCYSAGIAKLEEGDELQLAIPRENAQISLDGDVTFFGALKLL

B1: wild type human BCMA extracellular domain (sBCMA WT ECD), Q02223 1-54 (receptor)
chain: MLQMAGQCSQNEYFDSLLHACIPCQLRCSSNTPPLTCQRYCNASVTNSVKGTNA
Take B1: the Kd in assay [1] turned out to be 0.032 nM; in assay [2], 0.032 nM; in assay [4], 0.0323 nM; in assay [7] it was 0.025 nM. Further, in assay [3], the BP is 263. The figures for the Bmax in assay [5], in assay [6] and in assay [7] were 78.3 A.U, 9930 A.U and 6560 A.U, respectively.
